Reference: patent US20210009693A1 (MABSPACE BIOSCIENCES SUZHOU, published 2021)
Where two headings read alike, the source gives them in different places.

What was measured:
[1] = biological target: T1, Human PD-L1/CD274 with C-Fc Tag (hPD-L1-Fc) (human, UniProt Q9NZQ7 19-238); assay: blocking ELISA on coated hPD-L1-Fc; blocked ligand: biotinylated hPD-1-N297A
T1 construct: range 19-238; ACRO Biosystem PD1-H5258, made in HEK293; also called human PD-L1-Fc; not shown: Fc fragment of human IgG1 at C-terminus
T1 sequence (Q9NZQ7 19-238 limits assumed): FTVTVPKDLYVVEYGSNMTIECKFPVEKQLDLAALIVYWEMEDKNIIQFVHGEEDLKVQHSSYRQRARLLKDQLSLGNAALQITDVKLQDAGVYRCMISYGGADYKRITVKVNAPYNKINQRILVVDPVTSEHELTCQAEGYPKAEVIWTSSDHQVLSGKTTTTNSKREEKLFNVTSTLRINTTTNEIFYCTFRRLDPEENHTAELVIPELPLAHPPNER
Experimental: High-binding clear polystyrene 96 well plates (Nunc) were coated with 100 μl/well of coating solution consisting of 1 μg/ml hPD-L1-Fc overnight at 4° C. Then the plates were washed once on an automatic plate washer using washing buffer (PBS+0.1% Tween 20 (Sigma)). 200 μl of blocking buffer (PBS+1% BSA+1% normal goat serum+0.05% Tween-20) was added to each well and incubated 2 hours at room temp. […] The plates were then washed 3 times using the method described above. […] After the plates were washed 3 times, 100 μl/well of a solution of 1:5000 diluted HRP conjugated Neutravidin antibody (Pierce) in dilution buffer was then added to each well of the plate. After that the ELISA plates were allowed to incubate for 60 min at RT, then the plates were washed 3 times with 250 μl/well washing buffer. Finally, 100 μl/well of TMB was added to each well and the reaction was terminated using 0.64M H₂SO₄. The plates were read on a Thermo Multiscan FC at 450 nM (see FIG. 18A to 18D).

[2] = biological target: T2, human PD-L1 expressed on cells (human, UniProt Q9NZQ7 19-290); assay: FACS, IFN-gamma stimulated HCC827 cells
T2 construct: whole, on cells; also called hPD-L1 expressed on HCC827; hPD-L1 on MC38/hPD-L1 cells
T2 sequence (Q9NZQ7 19-290): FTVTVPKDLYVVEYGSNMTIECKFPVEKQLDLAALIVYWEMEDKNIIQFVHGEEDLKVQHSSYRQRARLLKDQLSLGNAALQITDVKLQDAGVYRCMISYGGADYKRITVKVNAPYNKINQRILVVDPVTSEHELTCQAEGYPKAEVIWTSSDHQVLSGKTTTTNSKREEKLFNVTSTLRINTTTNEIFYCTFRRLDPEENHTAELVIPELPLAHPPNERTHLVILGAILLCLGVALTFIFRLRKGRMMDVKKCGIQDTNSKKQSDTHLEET

[3] = biological target: T2, human PD-L1 expressed on cells; assay: blocking FACS on HCC827 cells; blocked ligand: biotinylated hPD-1-N297A
Experimental: (§1) Log phase IFN-γ stimulated (500U/ml for 2 days) HCC827 cells were collected and resuspended in blocking buffer (5% BSA+PBS). 2×10\hat{ }5 cells were added to each tube and then washed once with PBS (1500 rpm, 5 mins, RT). […] After washing for three times with PBS, 100 μl/tube streptavidin-PE 1:200 in blocking buffer was added to each tube. The cells were incubated at 4° C. for 1 hr and then washed twice with PBS, followed by resuspending cells in 150 μl PBS for each sample. The cells were then transferred into FACS tube and the binding of the antibodies to the cells were detected with flow cytometry (ACEA Bioscience Novocyte) (see FIGS. 20A and 20B).

[4] = biological target: hPD-L1 (antigen of the Biacore assay) (human, UniProt Q9NZQ7 19-238, limits assumed); assay: SPR (Biacore), antibody captured on anti-human Fc, antigen in flow
hPD-L1 (antigen of the Biacore assay), sequence (Q9NZQ7 19-238 limits assumed): as the sequence (Q9NZQ7 19-238 limits assumed) above
Experimental: A CM5 sensor chip was activated in each flow cell by 7-min injection (10 μl/min) of freshly prepared 1:1 50 mM N-hydroxysuccinimide (NHS): 200 mM 1-ethyl-3-(3-dimethylaminopropyl)-carbodiimide (EDC). Then anti-human Fc antibody (GE Healthcare) in a concentration of 10 μg/ml in 10 mM sodium acetate buffer PH 5.0 was injected onto the activated chip at 10 μl/min (HBS-EP running buffer: 10 mM HEPES, 150 mM NaCl, 3.4 mM EDTA, 0.005% surfactant P20, pH 7.4). The remaining active coupling sites were blocked by 7 min injection of 1M ethanolamine at 10 μl/min. The immobilization level of each flow cell is ˜9000RU. Antibodies were captured in FC2 by anti-human Fe IgG (GE Healthcare) to 200˜300RU. FC1 was used as the reference cell. Antigen was injected at varying concentrations after capture of antibody. The association time for antibody binding antigen is 180s. Surface Regeneration condition is 120s at 10 μl/min in Gly pH1.5. The signals with captured antibody subtracted from those without captured antibody were calculated with Biacore X100 evaluation software ver. 2.0 (Biacore).

[5] = biological target: T3, Recombinant Human PD-L1/CD274 Protein (hPD-L1-his) (human, UniProt Q9NZQ7 19-238); assay: ELISA, coated hPD-L1-his, acidic wash and incubation after binding at pH7.4
T3 construct: range 19-238; ACRO Biosystem PD1-H5229, made in HEK293; also called human PD-L1-his; hPD-L-his
T3 sequence (Q9NZQ7 other isoform, or with tags, fused parts or gaps limits assumed): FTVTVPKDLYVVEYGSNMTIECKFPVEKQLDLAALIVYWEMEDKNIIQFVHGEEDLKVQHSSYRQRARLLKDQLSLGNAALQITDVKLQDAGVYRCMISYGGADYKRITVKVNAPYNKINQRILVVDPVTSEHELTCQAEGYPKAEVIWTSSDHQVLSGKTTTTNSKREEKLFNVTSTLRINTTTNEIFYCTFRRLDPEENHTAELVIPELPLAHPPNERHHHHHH
Experimental: (§2) The pH-dependent binding affinity was further measured at various pH values, such as pH4, pH4.5, pH5.0, pH5.5, pH6.0, pH7.4. The measurement by ELISA was conducted similarly to the method described above. High-binding clear polystyrene 96 well plates were coated with 100 μl/well of a 0.5 μg/ml hPD-L1-his in high pH coating buffer and incubated overnight at 4° C. Then the coated plates were washed 3 times with shaking for 10s on an automatic plate washer with PBS+0.1% Tween 20 (Amresco). Then 200 μl of blocking buffer (1% BSA (Solarbio)+1% normal goat serum (Solarbio)+0.05% Tween 20 (Amresco)) was added to each well and the plates were then incubated for 2 hours at room temperature and washed 3 times as above. […] The plates were then washed once with 250 μl/well washing buffer at pH7.4, pH6.0, pH5.5, pH5.0, pH4.5 or pH4.0 and then 100 μl/well pH7.4 or pH5.5 washing buffer was added and the incubation was continued for 2 hours at RT with shaking. Afterwards, the plates was washed 3 times washing buffer at pH7.4 and 100 μl/well of a solution of HRP conjugated goat anti-hIgG HRP antibody (1:20000, Abcam) in pH7.4 dilution buffer was then added to each well of the plate. After that the plates were allowed to incubate for 60 min at room temperature followed by washing 3 times with 250 μl/well pH7.4 washing buffer. Finally, 100 μl/well of TMB was added to each well for 15 min and the reaction was terminated using 50 μl/well of 0.16M/L sulfuric acid. The plates were read on a Thermo Multiscan FC at 450 nm (see FIG. 23A-23F). The measurements were performed in triplicate.

[6] = biological target: T3, Recombinant Human PD-L1/CD274 Protein …; assay: ELISA on coated hPD-L1-his; bound at pH7.4, then 2 h at pH5.5
Experimental: as §2, with “Finally, 100 μl/well of TMB was added to each well for 15 min and the reaction was terminated using 50 μl/well of 0.16M/L sulfuric acid.” left out, “The measurements were performed in triplicate.” left out

[7] = biological target: T4, human PD-L1-Fc mutant E58A (human); assay: ELISA on captured PD-L1-Fc, as in Example 18A
T4 construct: Position 58 counts on native human PD-L1 (NP_054862.1); also called E58A mutant
T4 sequence (chain, as listed by the source E58A E58A limits assumed): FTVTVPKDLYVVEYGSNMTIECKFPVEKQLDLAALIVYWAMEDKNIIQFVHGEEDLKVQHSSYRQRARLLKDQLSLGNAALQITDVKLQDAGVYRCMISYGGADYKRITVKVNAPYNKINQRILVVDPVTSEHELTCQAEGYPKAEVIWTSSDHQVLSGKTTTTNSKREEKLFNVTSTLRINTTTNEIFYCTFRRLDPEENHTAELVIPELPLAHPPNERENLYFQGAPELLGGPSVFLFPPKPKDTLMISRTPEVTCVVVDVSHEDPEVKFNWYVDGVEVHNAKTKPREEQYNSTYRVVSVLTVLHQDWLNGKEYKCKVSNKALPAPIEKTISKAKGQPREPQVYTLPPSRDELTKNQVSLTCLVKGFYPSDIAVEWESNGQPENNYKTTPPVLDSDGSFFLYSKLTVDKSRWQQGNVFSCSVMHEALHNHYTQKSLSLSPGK

[8] = biological target: T5, wild type human PD-L1-Fc protein (SEQ ID NO: 107) (human); assay: ELISA on captured PD-L1-Fc, as in Example 18A
T5 construct: Extracellular human PD-L1 (amino acid 19-238) with Fc fragment of human IgG1, expressed in 293T cells and used as culture supernatant; also called WT PD-L1; wild-type PD-L1
T5 sequence (chain, as listed by the source limits assumed): as the sequence (chain, as listed by the source E58A E58A limits assumed) above, with A40E counted along it

[9] = biological target: T3, Recombinant Human PD-L1/CD274 Protein …; assay: ELISA on coated hPD-L1-his; bound at pH7.4, then 2 h at pH7.4
Experimental: as §2

[10] = biological target: T3, Recombinant Human PD-L1/CD274 Protein …; assay: ELISA on coated hPD-L1-his
[11] = biological target: T3, Recombinant Human PD-L1/CD274 Protein …; assay: ELISA on coated hPD-L1-his; bound at pH7.4, then 2 h at pH5.5; remark: listed apart in the source
[12] = biological target: T3, Recombinant Human PD-L1/CD274 Protein …; assay: ELISA on coated hPD-L1-his; bound at pH7.4, then 2 h at pH7.4; remark: listed apart in the source
[13] = biological target: T3, Recombinant Human PD-L1/CD274 Protein …; assay: ELISA on coated hPD-L1-his; bound at pH7.4, then 2 h at pH5.5; remark: listed apart in the source
[14] = biological target: T2, human PD-L1 expressed on cells; assay: FACS, IFN-gamma stimulated HCC827 cells; remark: listed apart in the source
Experimental: Log phase IFN-γ stimulated (500U/ml for 2 days) HCC827 cells were collected and resuspended in blocking buffer (5% BSA+PBS). 2×10\hat{ }5 cells were added to each tube and then washed once with PBS (1500 rpm, 5 mins, RT). The 100 μl/tube serial diluted biotinylated PD-L1 antibodies with blocking buffer were added into corresponding tubes and incubate at 4° C. for 1 hr.

[15] = biological target: T3, Recombinant Human PD-L1/CD274 Protein …; assay: ELISA on coated hPD-L1-his; bound at pH7.4, then 2 h at pH7.4; remark: listed apart in the source
[16] = biological target: T2, human PD-L1 expressed on cells; assay: blocking FACS on HCC827 cells; blocked ligand: biotinylated hPD-1-N297A; remark: listed apart in the source
Experimental: as §1, with “RT). The 100 μl/tube serial diluted PD-L1 antibodies (see FIG. 8) with blocking buffer were added into corresponding tubes and incubate at 4° C. for 1 hr.” for “RT).”, “1:200 (EBiosciences)” for “1:200”, “Novocyte).” for “Novocyte) (see FIGS. 20A and 20B).”

[17] = biological target: T3, Recombinant Human PD-L1/CD274 Protein …; assay: ELISA on coated hPD-L1-his; bound at pH7.4, then 2 h at pH5.5; remark: listed apart in the source
[18] = biological target: T3, Recombinant Human PD-L1/CD274 Protein …; assay: ELISA on coated hPD-L1-his; bound at pH7.4, then 2 h at pH7.4; remark: listed apart in the source

B1: 23A11-H3L5 (antibody, V domains shown)
VH: LVQLVQSGAEVKKPGASVKLSCKASGYIFTTYWIHWVKQRPGQGLEWIGMIQPNSGGTKYNDQFKNRATLTVDKSISTAYMELSRLTSDDTAVYYCARGAGTVDYFDYWGQGTTLSISS
VL: DIVLTQSPASLAVSVGQRATITCRASESVDIYGNSFMHWYQQKPGQAPKLLIYRASNLESGIPARFSGSGSRTDFTLTINPVEANDTATYYCQQSNDDPYTFGGGTKLETK
notes: Human IgG1 constant region with N297A; biotinylated in the alanine-scan ELISA; also called 23A11-H3L5-bio; humanized 23A11
IC50 (read off the curve) [1]: ~0.05 µg/mL | EC50 (read off the curve) [2]: ~0.02 µg/mL | IC50 (read off the curve) [3]: ~0.05 µg/mL | Kd [4]: 43.2 nM | koff [4]: 0.0223 s⁻¹ | kon [4]: 517000 M⁻¹ s⁻¹ | binding signal at pH5 as percent of the signal at pH7.4 [5]: < 50% | binding signal at pH5.5 as percent of the signal at pH7.4 [5]: < 75% | EC50 (read off the curve) [6]: ~0.02 µg/mL | % of binding of Ab to E58A mutant vs. that to WT PD-L1 [7]: 8.3% | Mean OD450 [7]: 0.111 OD450 | OD450 nM of sample-1 [7]: 0.128 OD450 | OD450 nM of sample-2 [7]: 0.094 OD450 | Mean OD450 [8]: 1.34 OD450 | OD450 nM of sample-1 [8]: 1.22 OD450 | OD450 nM of sample-2 [8]: 1.47 OD450 | EC50 (read off the curve) [9]: ~0.01 µg/mL | EC50 (read off the curve) [10]: ~0.002 µg/mL

B2: 23A11-H3L5 CHO (antibody, V domains shown)
VH: QVQLVQSGAEVKKPGASVKLSCKASGYIFTTYWIHWVKQRPGQGLEWIGMIQPNSGGTKYNDQFKNRATLTVDKSISTAYMELSRLTSDDTAVYYCARGAGTVDYFDYWGQGTTLSISS
VL: DIVLTQSPASLAVSVGQRATITCRASESVDIYGNSFMHWYQQKPGQAPKLLIYRASNLESGIPARFSGSGSRTDFTLTINPVEAQDTATYYCQQSNDDPYTFGGGTKLETK
notes: CHO-produced counterpart of m16; also called 23A11-H3L5 produced in CHO cells
EC50 (read off the curve) [11]: ~0.008 µg/mL | IC50 (read off the curve) [3]: ~0.05 µg/mL | EC50 (read off the curve) [12]: ~0.006 µg/mL

B3: 26F5-C (antibody, V domains shown)
VH: QVQLQQPGAELVKPGASVKLSCKASGYTFPSYWMHWMKQRPGQGLEWIGMIQPSTSGTIYNERFKNQVTLTVDKSSSTAYMQLSSQTSEDSAVYYCARGTGTVDYFDYWGQGTTLTVSS
VL: DIVLTQSPASLAVSLGQRATISCRASESVDSYGNSFIHWYQQKPGQPPKLLIHRASNLESGIPATFSGSGSRTDFTLTINPVEADDVATYYCQQSKEDPYTFGGGTKLEIK
notes: Mouse variable regions fused to a human IgG1 constant region; also called 26F5-chimeric; chimeric antibody 26F5
EC50 (read off the curve) [13]: ~0.02 µg/mL | EC50 (read off the curve) [14]: ~0.1 µg/mL | EC50 (read off the curve) [15]: ~0.01 µg/mL | IC50 (read off the curve) [16]: ~0.09 µg/mL

B4: 21F11-C (antibody, V domains shown)
VH: QVQLQQPGAELVKPGASVKLSCKASGYTFTSNWMHWVKQRPGQGLEWIGMMHPNSGSINYNEKFKNKATLTADKSSSTAYMQLSSLTSEDSAVYYCARSYYGSSPYYFDYWGQGTTLTVSS
VL: DIQMTQTTSSLSASLGDRVTISCRASQDISNYLNWYQQKPDGTVKLLIYYTSRLHSGVPSRFSGSGSGTDFSLTISNLEEEDIATYFCQQGDTLPWTFGGGTKLEIK
notes: Mouse variable regions fused to a human IgG1 constant region; also called 21F11-chimeric; chimeric antibody 21F11
EC50 (read off the curve) [17]: ~0.01 µg/mL | EC50 (read off the curve) [18]: ~0.01 µg/mL
